Data reported in patent publication US20250002599A1 (NOVAROCK BIOTHERAPEUTICS, published 2025).
Where a chain is given by its changes, count along the chain named. Like-named read-outs stand apart in the source and are kept apart here. Blank lines part the entries; values can stand above or below the binder they belong to.

Tests used:
[1] = target: T1, human CD137 expressed on the cell surface of HEK293T cells (human, UniProt Q07011 24-255); assay: immunofluorescence imaging on HEK293T cells expressing human CD137
T1 construct: Stably or transiently transfected HEK293T cells; also on HEK293T and Jurkat T NFκB reporter cells; also called human CD137 (WT); 4-1BB

[2] = target: T2, mouse CD137 expressed on the cell surface of HEK293T cells (mouse, UniProt P20334 24-256); assay: immunofluorescence imaging binding assay on mouse CD137-expressing HEK293T cells
T2 construct: whole, on cells; also called murine CD137; mouse 4-1BB
T2 sequence (P20334 24-256): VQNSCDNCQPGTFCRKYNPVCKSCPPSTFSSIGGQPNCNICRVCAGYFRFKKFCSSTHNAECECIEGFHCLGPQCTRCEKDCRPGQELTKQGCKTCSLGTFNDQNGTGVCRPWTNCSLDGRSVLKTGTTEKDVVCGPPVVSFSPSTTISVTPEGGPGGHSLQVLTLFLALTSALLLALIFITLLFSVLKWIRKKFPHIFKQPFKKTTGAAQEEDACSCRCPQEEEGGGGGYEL

[3] = target: T3, cynomolgus CD137 expressed on the cell surface of HEK293T cells (cynomolgus, UniProt Q07011 24-255 (human entry)); assay: immunofluorescence imaging on HEK293T cells expressing cynomolgus CD137
T3 construct: also called cyno CD137
T3 chain: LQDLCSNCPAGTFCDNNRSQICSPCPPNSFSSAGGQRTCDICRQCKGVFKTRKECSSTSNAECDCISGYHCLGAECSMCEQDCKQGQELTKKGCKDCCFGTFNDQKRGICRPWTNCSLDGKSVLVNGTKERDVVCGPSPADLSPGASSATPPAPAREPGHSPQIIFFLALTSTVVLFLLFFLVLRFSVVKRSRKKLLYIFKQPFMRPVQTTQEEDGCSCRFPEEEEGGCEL

[4] = target: T1, human CD137 expressed on the cell …; assay: immunofluorescence imaging binding assay on human CD137-expressing HEK293T cells
[5] = target: T4, cynomolgus PD-L1 protein (Acro Biosystems, cat #: PD1-C52H4) (cynomolgus, UniProt Q9NZQ7 19-238 (human entry)); assay: ELISA, PD-L1 protein coated on the plate, OD 405
T4 construct: Bought protein; also called cyno PD-L1
T4 sequence (Q9NZQ7 other isoform, or with tags, fused parts or gaps limits assumed): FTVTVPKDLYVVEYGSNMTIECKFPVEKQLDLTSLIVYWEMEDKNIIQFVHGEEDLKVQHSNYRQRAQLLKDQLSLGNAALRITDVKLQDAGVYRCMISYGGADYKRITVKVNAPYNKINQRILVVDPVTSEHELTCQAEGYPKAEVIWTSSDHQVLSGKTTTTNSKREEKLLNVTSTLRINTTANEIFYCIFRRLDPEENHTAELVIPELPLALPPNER

[6] = target: T5, human recombinant PD-L1 protein (Acro Biosystems, cat #: PD1-H5229) (human, UniProt Q9NZQ7 19-238); assay: ELISA, PD-L1 protein coated on the plate, OD 405
T5 construct: Bought protein; also called human PD-L1; recombinant human PD-L1
T5 sequence (Q9NZQ7 19-238 limits assumed): as the sequence (Q9NZQ7 other isoform, or with tags, fused parts or gaps limits assumed) above, with T33A, S34A, N62S, Q68R, R82Q, L173F, A185T, I192T, L215H counted along it

[7] = target: T6, mouse PD-L1 protein (Acro Biosystems, cat #: PD1-M5220) (mouse, UniProt Q9EP73 19-238); assay: ELISA, PD-L1 protein coated on the plate, OD 405
T6 construct: Bought protein; also called murine PD-L1
T6 sequence (Q9EP73 19-238 limits assumed): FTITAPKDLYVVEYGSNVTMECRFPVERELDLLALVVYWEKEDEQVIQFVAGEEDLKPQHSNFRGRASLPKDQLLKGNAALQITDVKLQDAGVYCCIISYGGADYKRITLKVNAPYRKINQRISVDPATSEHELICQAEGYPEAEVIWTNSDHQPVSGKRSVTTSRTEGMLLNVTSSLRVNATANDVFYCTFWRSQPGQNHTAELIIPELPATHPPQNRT

[8] = target: T7, human PD-L1 expressed on the cell surface (HEK293T-PD-L1 cells; Promega artificial APC CHO-K1 cells) (human, UniProt Q9NZQ7 19-290); assay: cell-based or functional assay
T7 sequence (Q9NZQ7 19-290 limits assumed): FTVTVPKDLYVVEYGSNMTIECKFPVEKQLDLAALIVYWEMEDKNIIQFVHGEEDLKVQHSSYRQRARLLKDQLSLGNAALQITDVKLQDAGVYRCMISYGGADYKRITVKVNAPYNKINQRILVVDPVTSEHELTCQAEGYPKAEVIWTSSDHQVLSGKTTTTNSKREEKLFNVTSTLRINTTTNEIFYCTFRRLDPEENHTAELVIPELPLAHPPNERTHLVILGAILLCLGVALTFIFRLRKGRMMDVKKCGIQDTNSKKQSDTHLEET

[9] = target: T2, mouse CD137 expressed on the cell …; assay: immunofluorescence imaging binding assay on mouse CD137-expressing HEK293T cells; remark: listed apart in the source
[10] = target: T8, human CD137 (Sino Biological, cat #10041-H08H) (human, UniProt Q07011 24-186); assay: SPR (Biacore3000), antibody captured by anti-human IgG on CM5, CD137 as analyte, 1:1 binding with mass transfer
T8 construct: Bought protein used as the analyte in SPR; also called CD137 antigen in Biacore
T8 sequence (Q07011 24-186 limits assumed): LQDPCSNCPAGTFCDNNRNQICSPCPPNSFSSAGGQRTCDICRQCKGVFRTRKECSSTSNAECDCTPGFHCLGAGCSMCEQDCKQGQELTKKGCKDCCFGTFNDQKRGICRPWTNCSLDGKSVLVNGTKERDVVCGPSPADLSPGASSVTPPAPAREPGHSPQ

[11] = target: T5, human recombinant PD-L1 protein (Acro …); assay: SPR (Biacore3000), antibody captured by anti-human IgG on CM5, PD-L1 as analyte, 1:1 binding with mass transfer
[12] = target: T7, human PD-L1 expressed on the cell …; assay: immunofluorescence imaging on HEK293T-PD-L1 cells
[13] = target: T4, cynomolgus PD-L1 protein (Acro …); assay: ELISA, PD-L1 protein coated on the plate, OD 405; remark: listed apart in the source
[14] = target: T5, human recombinant PD-L1 protein (Acro …); assay: ELISA, PD-L1 protein coated on the plate, OD 405; remark: listed apart in the source
[15] = target: T6, mouse PD-L1 protein (Acro Biosystems, …); assay: ELISA, PD-L1 protein coated on the plate, OD 405; remark: listed apart in the source
[16] = target: T2, mouse CD137 expressed on the cell …; assay: immunofluorescence imaging binding assay on mouse CD137-expressing HEK293T cells; remark: listed apart in the source

B3: 1923Ab4 (antibody, V domains shown)
VH: QVQLVESGGGVVQPGRSLRLSCAASGFTFSNYGMHWVRQAPGKGLEWVAIIWYDGINKYYADSVKGRFTISRDNSKNTLYLQMNSLKAEDTAVYYCARDQDYDILTGYYKEDYFDFWGQGTLVTVSS
VL: SYELTQPPSVSVSPGQTARITCSGDALPKKYAYWYQQKSGQAPVLVIYEDSKRPSGIPERFSGSSSGTMATLTISGAQVEDEADYYCYSTDSSGNRVFGGGTKLTVL
notes: also called CD137 monospecific 1923Ab4; anti-CD137 1923Ab4
EC50 [1]: 290 pM
binding result [9]: no binding
EC50 [3]: 220 pM
Kd [10]: 7180 pM
koff [10]: 0.0219 s⁻¹
kon [10]: 3.05e+06 M⁻¹ s⁻¹

B4: 1923Ab3 (antibody, V domains shown)
VH: QVQLVQSGAEVKKPGASVKVSCKASGYTFTSYDINWVRQATGQGLEWMGWMNPNSGITGYAQRFQGRVTMTRDTSISTAYMELSSLRSEDTAVYYCARHRWGKGYLDLWGRGTLVTVSS
VL: EIVMAQSPATLSLSPGERATLSCRASQSVSSSYLSWFQQKPGQAPRLLIYGASTRATGIPARFGGSGSGTDFTLTISSLQPEDFAVYYCQQDYNLPYTFGQGTKLEIK
notes: also called PD-L1 monospecific 1923Ab3; anti-PD-L1 antibody 1923Ab3
Kd [11]: 2950 pM
koff [11]: 0.0024 s⁻¹
kon [11]: 814000 M⁻¹ s⁻¹
EC50 [12]: 180 pM
IC50, PD-1/PD-L1 blockade luciferase reporter assay [8]: 430 pM
EC50 [13]: 70 pM
EC50 [14]: 80 pM
binding result [15]: no binding

B5: 1923Ab5 (antibody, human IgG1, V domains shown)
VH: QVQLVESGGGVVQPGRSLRLSCAASGFTFSSYGMHWVRQAPGKGLEWVAVIWYDGSNEYYADSVKGRFTISRDNSKNTLYLQMNSLRAEDTAVYYCARERWQWLVLFDYWGQGTLVTVSS
VL: B4 VL with M4L, A5T, S28T, V29I, S30T, F37Y, G64S, V86L, Y88F, Y93F
notes: also called CD137 monospecific 1923Ab5
binding result [16]: no binding
EC50 [1]: 1620 pM
EC50 [3]: 2770 pM
EC50 [4]: 1600 pM

Other lines, results leading:

EC50 [1]: 10500 pM
binding result [2]: no binding
EC50 [3]: 4230 pM
EC50 [4]: 11000 pM
B1: 1923Ab6 (antibody, human IgG1, V domains shown)
VH: EVHLLESGGGLVQPGGSLRLSCAASGFTFSSYAMGWVRQAPGKGLEWVSIIGGGGGSTYYADSVKGRFTISRDNSKNTLYLQMNSLRAEDTAVYYCAKVGYSGTYGGWFDPWGQGTLVTVSS
VL: DIQMTQSPSSLSASIGDRVAITCRASQGISNYLAWFQQKPGKAPKSLIYAASSLQSGVPSKFSGSGSGTDFTLTISSLQPEDFATYYCQQYNSYPLTFGGGTKVEIK
notes: also called CD137 monospecific 1923Ab6

EC50 [5]: 80 pM
EC50 [6]: 90 pM
binding result [7]: no binding
IC50, PD-1/PD-L1 blockade luciferase reporter assay [8]: 900 pM
B2: 1923Ab2 (antibody, V domains shown)
VH: QVQLVESGGGVVQPGRSLRLSCAASGFTFRNYGMHWVRQAPGKGLEWVAVIWFDGINKYYADSVKGRFTISRDNSENTLYLQMNSLRAEDTAVYYCARDRSSSPFDFWGQGTLVTVSS
VL: EIVMTQSPATLSLSPGERATLSCRASQNFSNNYLSWYQQTPGQAPRLLIYGASTRATGIPARFSGSGSGTDFTLTISSLQPEDFAVYYCQQDYNLFTFGPGTKVDIK
notes: Fully human variable regions from Trianni mice; Constant region as tested not clear: hybridoma-derived (mouse constant) or recombinant human IgG1 / IgG1 variant with human kappa; also called PD-L1 monospecific 1923Ab2; anti-PD-L1 antibody 1923Ab2
